Results from patent US20090163698A1 (published 2009).

Molecular target: murine αVβ3/5 integrin (murine, UniProt P43406 31-1044)
Experiment: cell-based or functional assay

murine αVβ3/5 integrin, sequence (P43406 31-1044): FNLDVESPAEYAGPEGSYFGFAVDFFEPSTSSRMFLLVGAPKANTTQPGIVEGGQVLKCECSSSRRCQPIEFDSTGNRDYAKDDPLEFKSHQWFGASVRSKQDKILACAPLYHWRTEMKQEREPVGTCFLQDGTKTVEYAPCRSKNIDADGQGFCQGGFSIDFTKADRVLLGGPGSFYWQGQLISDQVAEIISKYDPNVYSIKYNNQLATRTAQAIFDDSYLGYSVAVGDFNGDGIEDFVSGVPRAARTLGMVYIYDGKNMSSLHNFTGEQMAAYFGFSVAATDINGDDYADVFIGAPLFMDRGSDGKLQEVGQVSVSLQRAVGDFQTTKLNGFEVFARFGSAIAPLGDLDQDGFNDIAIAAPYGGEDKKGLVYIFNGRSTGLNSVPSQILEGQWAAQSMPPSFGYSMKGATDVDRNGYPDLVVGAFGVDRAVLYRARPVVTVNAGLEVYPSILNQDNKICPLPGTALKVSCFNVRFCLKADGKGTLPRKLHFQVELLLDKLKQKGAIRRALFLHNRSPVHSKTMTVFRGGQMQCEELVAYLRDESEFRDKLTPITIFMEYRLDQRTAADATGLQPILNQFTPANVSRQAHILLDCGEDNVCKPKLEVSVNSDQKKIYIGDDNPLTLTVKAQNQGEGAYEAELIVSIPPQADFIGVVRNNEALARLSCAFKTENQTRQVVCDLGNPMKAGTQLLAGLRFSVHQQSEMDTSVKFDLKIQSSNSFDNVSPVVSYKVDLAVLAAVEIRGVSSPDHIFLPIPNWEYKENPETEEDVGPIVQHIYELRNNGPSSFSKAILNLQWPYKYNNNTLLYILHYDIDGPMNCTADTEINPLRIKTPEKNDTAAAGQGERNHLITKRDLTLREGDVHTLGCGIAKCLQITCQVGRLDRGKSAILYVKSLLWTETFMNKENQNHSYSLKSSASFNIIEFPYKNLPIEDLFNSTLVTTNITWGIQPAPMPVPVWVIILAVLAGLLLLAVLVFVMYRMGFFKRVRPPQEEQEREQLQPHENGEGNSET

Increase (ratio of IC50 of liposome-entrapped doxorubicin to IC50 of 90:1 targeted liposomes), B16-F10 cells: 1 fold
B1: CNTO 95 Fab′ (anti-alpha-V Fab′ made by pepsin cleavage of the parent antibody, reduction and reoxidation), conjugated to MalPEG-DSPE on the surface of … (Fab, V domains shown)
VH: QVQLVESGGGVVQPGRSRRLSCAASGFTFSRYTMHWVRQAPGKGLEWVAVISFDGSNKYYVDSVKGRFTISRDNSENTLYLQVNILRAEDTAVYYCAREARGSYAFDIWGQGTMVTVSS
VL: EIVLTQSPATLSLSPGERATLSCRASQSVSSYLAWYQQKPGQAPRLLIYDASNRATGIPARFSGSGSGTDFTLTISSLEPEDFAVYYCQQRSNWPPFTFGPGTKVDIKR
modifications: free sulfhydryl near the C-terminus conjugated to maleimide-PEG-DSPE inserted in the liposome
